From patent publication US20240270857A1 (CHIA TAI TIANQING PHARMACEUTICAL GROUP, published 2024)

T1: CynoIL36R-ECD mFc recombinant protein (cynomolgus monkey)
T1 construct: Made in ExpiCHO, purified on Protein A; also called cynomolgus IL-36R extracellular region with mouse antibody heavy chain Fc
T1 chain: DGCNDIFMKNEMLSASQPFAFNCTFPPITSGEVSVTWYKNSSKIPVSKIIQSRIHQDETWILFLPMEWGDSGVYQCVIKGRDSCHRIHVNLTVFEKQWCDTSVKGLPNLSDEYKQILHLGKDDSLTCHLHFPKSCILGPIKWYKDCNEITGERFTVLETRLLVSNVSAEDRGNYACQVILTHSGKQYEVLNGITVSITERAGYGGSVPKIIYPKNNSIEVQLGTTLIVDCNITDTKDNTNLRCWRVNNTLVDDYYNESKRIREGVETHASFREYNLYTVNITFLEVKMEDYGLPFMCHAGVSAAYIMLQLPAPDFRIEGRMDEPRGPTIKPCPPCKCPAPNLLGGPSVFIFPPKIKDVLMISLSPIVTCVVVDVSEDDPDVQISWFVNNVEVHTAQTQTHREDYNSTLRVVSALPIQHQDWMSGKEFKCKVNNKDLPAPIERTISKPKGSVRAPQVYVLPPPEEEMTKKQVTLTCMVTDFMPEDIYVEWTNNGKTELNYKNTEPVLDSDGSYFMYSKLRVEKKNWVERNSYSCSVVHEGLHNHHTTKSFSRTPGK

T2: Human IL-1Rrp2/IL-1R6 protein, His Tag (ACROBiosystems, IL2-H52H6) (human, UniProt Q9HB29 20-335)
T2 construct: Bought protein; the soluble protein is likely only the extracellular part; also called hIL-36R; human IL36R antigen; not shown: His tag
T2 sequence: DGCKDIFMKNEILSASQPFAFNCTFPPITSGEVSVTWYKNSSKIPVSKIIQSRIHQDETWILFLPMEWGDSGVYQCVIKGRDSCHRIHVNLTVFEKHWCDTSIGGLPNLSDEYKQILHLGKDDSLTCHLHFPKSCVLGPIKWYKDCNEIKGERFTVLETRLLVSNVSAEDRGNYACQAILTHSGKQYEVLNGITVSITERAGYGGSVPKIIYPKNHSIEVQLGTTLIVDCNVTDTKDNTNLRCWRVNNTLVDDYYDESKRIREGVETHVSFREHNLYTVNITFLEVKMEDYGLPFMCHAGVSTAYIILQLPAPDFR


Tests used:
[1] = biological target: T1, CynoIL36R-ECD mFc recombinant protein; test: BLI (ForteBio Octet), antibody on ProA sensor, 1:1 model
Method: The affinity of anti-IL-36R antibodies to CynoIL36R-ECD mFc and human IL-1Rrp2/IL-IR6 protein, His Tag (ACROBiosystems, IL2-H52H6) was measured by a ForteBio molecular interaction instrument. […] And then the biosensor was used to bind CynoIL36R-ECD mFc or human IL-1Rrp2/IL-1R6 protein, His Tag which was diluted by a gradient (the initial concentration was 200 nM, 2-fold gradient dilution), the response signals were detected in real time using a Fortebio molecular interaction instrument (SARTORIUS, octet red 96e), and association and dissociation curves were obtained. After the completion of dissociation in each cycle, the biosensor was regenerated for the next capture; the procedure was repeated until the affinity of the different anti-IL-36R antibodies for IL-36R was determined. The resulting data were analyzed by Fortebio Data Analysis 11.0 software in a 1:1 (Langmuir) binding model to determine kₐ (kₒₙ) and kd (koff) values, and the dissociation constant KD was calculated by KD=kd/kₐ. The detection method essentially followed the manufacturer's recommendations, and more information could be found at www.fortebio.com.
Affinity, binding and blocking assays for humanized antibodies hz72C1-1.1, hz72C1-1.2, hz72C1-1.3, hz72C1-2.1, hz72C1-2.2 and hz72C1-2.3 as well as hz84C4-1.1, hz84C4-1.2, hz84C4-1.3, hz84C4-1.4, hz84C4-1.5, hz84C4-2.1, hz84C4-2.2, hz84C4-2.3, hz84C4-2.4 and hz84C4-2.5 were performed according to the methods of Example 4, Example 5. Example 6, Example 7 and Example 8.

[2] = biological target: T2, Human IL-1Rrp2/IL-1R6 protein, His Tag …; test: ELISA, plate coated with human IL-1Rrp2/IL-1R6 His Tag, HRP-protein A/G, OD450
Method: The binding activity of anti-IL-36R antibodies to IL-36R was analyzed by ELISA using human IL-1Rrp2/IL-1R6 protein, His Tag (ACROBiosystems, IL2-H52H6) and CynoIL36R-ECD mFc (for detection of chimeric and humanized antibodies), and hIL36R-ECD hFc and CynoIL36R-ECD hFc protein (for detection of hybridoma antibodies) as antigens. A 96-well plate (Costar, 9018) was coated with 2 μg/mL antigen at 100 μL/well and incubated overnight at 4° C. After the 96-well plate was washed with a washing buffer (PBS containing 0.05% v/v Tween 20), a blocking buffer (PBS containing 2% bovine serum albumin) was added for blocking at 37° C. for 2 h. After the 96-well plate was washed with the washing buffer, 100 μL of the gradient diluted anti-IL-36R antibody of the present disclosure or the reference antibody BI655130 (the initial concentration of the antibody was 66 nM, 4-fold gradient dilution) was added to each well, and the plate was incubated at room temperature for 1 h. After the 96-well plate was washed with the washing buffer, 100 μL of horseradish peroxidase-conjugated recombinant protein A/G (TheroScientific, 32490) was added to each well, and the plate was incubated at room temperature for 1 h. After the 96-well plate was washed with the washing buffer, 100 μL of a TMB solution (Thermo, 00-4201-56) was added to each well, and the plate was incubated at room temperature for 2 min. Finally, 100 μL of a stop solution (2 N H₂SO₄) was added to each well to stop the reaction. Absorbance was read at 450 nm using a microplate reader (PE, Envision), the resulting data was analyzed using GraphPad Prism, and EC₅₀ was calculated. Binding EC₅₀ of the chimeric anti-IL-36R antibodies to hIL-36R in an ELISA assay is shown in FIG. 1. and binding EC₅₀ of the chimeric anti-IL-36R antibodies to CynoIL-36R in an ELISA assay is shown in FIG. 2. The binding of BI655130 is shown as a control, and the binding of IgG4 is shown as a negative control.

Binder | Kd [1] [nM] | koff [1] [s⁻¹] | kon [1] [M⁻¹ s⁻¹] | EC50 [2] [nM]
chimeric 72C1 antibody (antibody, human IgG4 S228P, kappa, Mouse variable regions on human IgG4 / kappa; also called xi72C1) heavy: not shown light: EILLTQSPAIMSATLGEKVTMSCRASSNVRYMYWYQLKSGASPKLWIYLTSNLASGVPARFSGSGSGTSYSLTISSVEAEDAATYFCQQFTTSPYTFGGGTKLEIKRTVAAPSVFIFPPSDEQLKSGTASVVCLLNNFYPREAKVQWKVDNALQSGNSQESVTEQDSKDSTYSLSSTLTLSKADYEKHKVYACEVTHQGLSSPVTKSFNRGEC | 0.352 | 9.04e-06 | 25700 | 2.62
BI655130 (antibody, human IgG1, kappa, L234A L235A, also called Spesolimab) heavy: not shown light: QIVLTQSPGTLSLSPGERATMTCTASSSVSSSYFHWYQQKPGQAPRLWIYRTSRLASGVPDRFSGSGSGTDFTLTISRLEPEDAATYYCHQFHRSPLTFGAGTKLEIKRTVAAPSVFIFPPSDEQLKSGTASVVCLLNNFYPREAKVQWKVDNALQSGNSQESVTEQDSKDSTYSLSSTLTLSKADYEKHKVYACEVTHQGLSSPVTKSFNRGEC | 2.46 | 7.26e-05 | 29500 | 0.761
chimeric 84C4 antibody (antibody, human IgG4 S228P, kappa, Mouse variable regions on human IgG4 / kappa; also called xi84C4) heavy: not shown light: DILMTQSPSSLSASLGERVSLTCRASQDIGNALNWLQQAPDGTIKRLIYATSSLDPGVPKRFSGSRSGSDYSLTISSLASEDFVYYYCLQYASSPYTFGGGTKLEIKRTVAAPSVFIFPPSDEQLKSGTASVVCLLNNFYPREAKVQWKVDNALQSGNSQESVTEQDSKDSTYSLSSTLTLSKADYEKHKVYACEVTHQGLSSPVTKSFNRGEC | – | – | – | 0.97

Other lines, results leading:

Kd [1] [nM] | koff [1] [s⁻¹] | kon [1] [M⁻¹ s⁻¹] | EC50 [2] [nM] | Binder
0.66 | 1.51e-05 | 22800 | – | hz72C1-1.1 (antibody, human IgG4 S228P, kappa, Humanized, human IgG4 / kappa; also called humanized 72C1 antibody 1.1) heavy: not shown light: DIQMTQSPSSLSASVGDRVTITCRASSNVRYMYWYQQKPGKAPKLWIYLTSNLASGVPSRFSGSGSGTSYTLTISSLQPEDFATYYCQQFTTSPYTFGQGTKLEIKRTVAAPSVFIFPPSDEQLKSGTASVVCLLNNFYPREAKVQWKVDNALQSGNSQESVTEQDSKDSTYSLSSTLTLSKADYEKHKVYACEVTHQGLSSPVTKSFNRGEC
0.445 | 9.42e-06 | 21200 | – | hz72C1-1.3 (antibody, human IgG4 S228P, kappa, Humanized, human IgG4 / kappa) heavy: not shown light: DIQMTQSPSSLSASVGDRVTITCRASSNVRYMYWYQQKPGKAPKLWIYLTSNLASGVPSRFSGSGSGTSYTLTISSLQPEDFATYYCQQFTTSPYTFGQGTKLEIKRTVAAPSVFIFPPSDEQLKSGTASVVCLLNNFYPREAKVQWKVDNALQSGNSQESVTEQDSKDSTYSLSSTLTLSKADYEKHKVYACEVTHQGLSSPVTKSFNRGEC
